Test results from patent US20100028347A1.

Tests used:
mouse VEGFR-1-AP (mouse) = mouse VEGFR-1-AP (mouse) (UniProt P35969); assay: ELISA: plate coated with mouse VEGFR-1-AP 100 ng/well, goat anti-rat IgG-HRP, O.D. 450
mouse VEGFR-1 Fc (mouse) = mouse VEGFR-1 Fc (mouse) (UniProt P35969); assay: ELISA: antibody dilutions on plate coated with 1 µg/ml mouse VEGFR-1 Fc, HRP secondary, O.D. 450
[1] = target: human VEGFR-2 alkaline phosphatase (human) (UniProt P35968); assay: ELISA: antibody dilutions on plate coated with 1 µg/ml human VEGFR-2 alkaline phosphatase, HRP secondary, O.D. 450
[2] = target: human VEGFR-2 alkaline phosphatase (human) (UniProt P35968); assay: ELISA: plate coated with huVEGFR-2-AP 100 ng/well, goat anti-human kappa-HRP, O.D. 450
[3] = target: native VEGFR-1 expressed on the cell surface (human) (UniProt P17948); assay: flow cytometry on PAE-VEGFR-1 cells, FITC goat anti-human IgG
Chain of native VEGFR-1 expressed on the cell surface (human) (P17948 27-1338): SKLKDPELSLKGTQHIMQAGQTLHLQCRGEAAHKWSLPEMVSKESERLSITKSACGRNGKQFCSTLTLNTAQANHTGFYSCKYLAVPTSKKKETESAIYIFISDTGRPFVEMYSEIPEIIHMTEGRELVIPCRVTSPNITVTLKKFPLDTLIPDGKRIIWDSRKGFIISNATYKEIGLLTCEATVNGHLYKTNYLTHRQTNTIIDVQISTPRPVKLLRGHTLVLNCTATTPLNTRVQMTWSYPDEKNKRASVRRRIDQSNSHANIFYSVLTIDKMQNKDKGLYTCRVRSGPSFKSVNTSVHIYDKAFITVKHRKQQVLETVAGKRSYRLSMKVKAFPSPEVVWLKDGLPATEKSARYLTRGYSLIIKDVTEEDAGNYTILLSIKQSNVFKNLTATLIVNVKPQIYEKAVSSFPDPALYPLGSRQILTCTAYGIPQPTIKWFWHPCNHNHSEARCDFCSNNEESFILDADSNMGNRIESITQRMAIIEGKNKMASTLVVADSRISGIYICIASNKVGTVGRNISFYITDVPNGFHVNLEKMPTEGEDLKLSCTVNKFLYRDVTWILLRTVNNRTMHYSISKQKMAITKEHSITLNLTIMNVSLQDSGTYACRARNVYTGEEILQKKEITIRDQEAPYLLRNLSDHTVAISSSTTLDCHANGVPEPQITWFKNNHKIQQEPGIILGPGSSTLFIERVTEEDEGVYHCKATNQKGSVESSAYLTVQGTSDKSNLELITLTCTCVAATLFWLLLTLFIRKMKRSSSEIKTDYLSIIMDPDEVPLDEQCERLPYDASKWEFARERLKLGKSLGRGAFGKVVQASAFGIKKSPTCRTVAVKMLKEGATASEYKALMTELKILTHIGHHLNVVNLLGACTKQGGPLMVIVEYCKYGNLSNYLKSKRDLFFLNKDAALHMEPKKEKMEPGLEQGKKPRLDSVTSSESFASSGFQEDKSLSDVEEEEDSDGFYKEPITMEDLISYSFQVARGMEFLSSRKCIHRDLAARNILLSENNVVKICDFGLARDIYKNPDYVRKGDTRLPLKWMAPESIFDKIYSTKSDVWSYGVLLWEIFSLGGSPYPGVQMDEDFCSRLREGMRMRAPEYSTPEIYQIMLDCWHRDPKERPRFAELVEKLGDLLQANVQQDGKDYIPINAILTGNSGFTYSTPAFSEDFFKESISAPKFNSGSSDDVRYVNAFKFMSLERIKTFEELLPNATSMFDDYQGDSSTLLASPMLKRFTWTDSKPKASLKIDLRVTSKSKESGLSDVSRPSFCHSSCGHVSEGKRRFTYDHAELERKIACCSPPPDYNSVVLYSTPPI

Chain of human VEGFR-2 alkaline phosphatase (human) (P35968 20-764): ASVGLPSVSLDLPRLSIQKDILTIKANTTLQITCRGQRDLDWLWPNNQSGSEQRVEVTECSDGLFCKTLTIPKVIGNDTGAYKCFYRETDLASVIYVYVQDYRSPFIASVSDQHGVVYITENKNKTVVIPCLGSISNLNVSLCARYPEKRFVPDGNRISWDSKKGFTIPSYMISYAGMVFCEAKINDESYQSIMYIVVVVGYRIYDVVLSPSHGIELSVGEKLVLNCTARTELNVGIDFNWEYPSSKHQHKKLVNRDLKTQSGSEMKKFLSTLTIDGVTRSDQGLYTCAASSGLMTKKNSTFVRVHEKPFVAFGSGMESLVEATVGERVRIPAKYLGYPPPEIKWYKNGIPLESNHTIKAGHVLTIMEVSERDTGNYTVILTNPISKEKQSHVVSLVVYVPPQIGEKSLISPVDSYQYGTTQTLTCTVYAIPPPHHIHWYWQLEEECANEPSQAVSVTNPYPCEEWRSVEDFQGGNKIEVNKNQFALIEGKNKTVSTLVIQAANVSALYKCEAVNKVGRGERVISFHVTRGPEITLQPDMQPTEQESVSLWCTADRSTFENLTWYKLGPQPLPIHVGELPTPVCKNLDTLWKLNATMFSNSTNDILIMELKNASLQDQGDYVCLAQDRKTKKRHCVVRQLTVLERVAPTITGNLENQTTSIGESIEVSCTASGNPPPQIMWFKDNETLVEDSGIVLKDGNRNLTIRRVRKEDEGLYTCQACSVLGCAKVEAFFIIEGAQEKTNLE
Chain of mouse VEGFR-1 Fc (mouse) (P35969 23-759 limits assumed): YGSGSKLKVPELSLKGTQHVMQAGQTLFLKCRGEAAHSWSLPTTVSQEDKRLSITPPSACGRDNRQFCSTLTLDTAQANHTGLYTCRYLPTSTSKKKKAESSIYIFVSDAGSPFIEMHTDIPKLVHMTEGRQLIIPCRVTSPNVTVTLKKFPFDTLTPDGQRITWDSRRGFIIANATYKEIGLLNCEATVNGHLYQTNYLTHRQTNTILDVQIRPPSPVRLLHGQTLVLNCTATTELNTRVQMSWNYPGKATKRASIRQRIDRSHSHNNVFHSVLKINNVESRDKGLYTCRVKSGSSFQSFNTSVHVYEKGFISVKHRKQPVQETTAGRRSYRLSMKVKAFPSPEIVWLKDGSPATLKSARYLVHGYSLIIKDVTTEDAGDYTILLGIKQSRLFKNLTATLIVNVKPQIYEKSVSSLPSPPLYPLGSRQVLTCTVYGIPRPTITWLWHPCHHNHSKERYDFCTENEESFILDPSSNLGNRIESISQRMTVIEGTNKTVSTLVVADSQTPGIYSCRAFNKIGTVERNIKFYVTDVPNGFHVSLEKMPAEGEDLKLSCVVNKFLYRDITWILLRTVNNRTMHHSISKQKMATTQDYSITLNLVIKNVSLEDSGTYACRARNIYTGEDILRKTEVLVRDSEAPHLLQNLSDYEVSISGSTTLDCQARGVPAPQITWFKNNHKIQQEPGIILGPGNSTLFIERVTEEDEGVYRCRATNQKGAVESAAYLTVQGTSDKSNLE
Chain of mouse VEGFR-1-AP (mouse) (P35969 23-759): as the sequence (P35969 23-759 limits assumed) above

Substance rat anti-mouse VEGFR-1 antibody MF1 has an EC50 (read off the curve) (mouse VEGFR-1-AP (mouse)) of 0.8 ng/mL and an EC50 (read off the curve) (mouse VEGFR-1 Fc (mouse)) of 0.8 ng/mL.
In the case of 1C11 (antibody), the EC50 (read off the curve) [1] is reported as 8 ng/mL and the EC50 (read off the curve) [2] is reported as 8 ng/mL.
Control IgG (antibody) gave an MFI [3] of 2.6.
